From IntAct's records for PubMed 20561531

B1: PRKC apoptosis WT1 regulator protein (Homo sapiens), Q96IZ0 (parent)
chain: MATGGYRTSSGLGGSTTDFLEEWKAKREKMRAKQNPPGPAPPGGGSSDAAGKPPAGALGTPAAAAANELNNNLPGGAPAAPAVPGPGGVNCAVGSAMLTRAAPGPRRSEDEPPAASASAAPPPQRDEEEPDGVPEKGKSSGPSARKGKGQIEKRKLREKRRSTGVVNIPAAECLDEYEDDEAGQKERKREDAITQQNTIQNEAVNLLDPGSSYLLQEPPRTVSGRYKSTTSVSEEDVSSRYSRTDRSGFPRYNRDANVSGTLVSSSTLEKKIEDLEKEVVRERQENLRLVRLMQDKEEMIGKLKEEIDLLNRDLDDIEDENEQLKQENKTLLKVVGQLTR

Variants of: B1
Details: with spsb2_mouse Spsb2, O88838
Sequence of spsb2_mouse Spsb2, O88838 (O88838 whole entry): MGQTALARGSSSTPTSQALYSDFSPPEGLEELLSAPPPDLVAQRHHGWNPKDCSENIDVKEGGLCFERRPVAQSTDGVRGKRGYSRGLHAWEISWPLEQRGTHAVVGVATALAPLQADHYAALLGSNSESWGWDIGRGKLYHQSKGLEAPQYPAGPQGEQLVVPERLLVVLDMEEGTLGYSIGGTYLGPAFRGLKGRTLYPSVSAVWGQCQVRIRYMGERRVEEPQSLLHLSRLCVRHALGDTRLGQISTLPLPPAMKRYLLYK

| effect of a mutation on the interaction | Variant |
| --- | --- |
| increasing interaction | MATGGYRTSSGLGGSTTDFLEEWKAKREKMRAKQNPPGPAPPGGGSSDAAGKPPAGALGTPAAAAANDINNNLPGGAPAAPAVPGPGGVNCAVGSAMLTRAAPGPRRSEDEPPAASASAAPPPQRDEEEPDGVPEKGKSSGPSARKGKGQIEKRKLREKRRSTGVVNIPAAECLDEYEDDEAGQKERKREDAITQQNTIQNEAVNLLDPGSSYLLQEPPRTVSGRYKSTTSVSEEDVSSRYSRTDRSGFPRYNRDANVSGTLVSSSTLEKKIEDLEKEVVRERQENLRLVRLMQDKEEMIGKLKEEIDLLNRDLDDIEDENEQLKQENKTLLKVVGQLTR [E68D;L69I] |
| increasing interaction | MATGGYRTSSGLGGSTTDFLEEWKAKREKMRAKQNPPGPAPPGGGSSDAAGKPPAGALGTPAAAAANEINNNLPGGAPAAPAVPGPGGVNCAVGSAMLTRAAPGPRRSEDEPPAASASAAPPPQRDEEEPDGVPEKGKSSGPSARKGKGQIEKRKLREKRRSTGVVNIPAAECLDEYEDDEAGQKERKREDAITQQNTIQNEAVNLLDPGSSYLLQEPPRTVSGRYKSTTSVSEEDVSSRYSRTDRSGFPRYNRDANVSGTLVSSSTLEKKIEDLEKEVVRERQENLRLVRLMQDKEEMIGKLKEEIDLLNRDLDDIEDENEQLKQENKTLLKVVGQLTR [L69I] |
| disrupting interaction | MATGGYRTSSGLGGSTTDFLEEWKAKREKMRAKQNPPGPAPPGGGSSDAAGKPPAGALGTPAAAAANELNANLPGGAPAAPAVPGPGGVNCAVGSAMLTRAAPGPRRSEDEPPAASASAAPPPQRDEEEPDGVPEKGKSSGPSARKGKGQIEKRKLREKRRSTGVVNIPAAECLDEYEDDEAGQKERKREDAITQQNTIQNEAVNLLDPGSSYLLQEPPRTVSGRYKSTTSVSEEDVSSRYSRTDRSGFPRYNRDANVSGTLVSSSTLEKKIEDLEKEVVRERQENLRLVRLMQDKEEMIGKLKEEIDLLNRDLDDIEDENEQLKQENKTLLKVVGQLTR [N71A] |
| disrupting interaction | MATGGYRTSSGLGGSTTDFLEEWKAKREKMRAKQNPPGPAPPGGGSSDAAGKPPAGALGTPAAAAANELANNLPGGAPAAPAVPGPGGVNCAVGSAMLTRAAPGPRRSEDEPPAASASAAPPPQRDEEEPDGVPEKGKSSGPSARKGKGQIEKRKLREKRRSTGVVNIPAAECLDEYEDDEAGQKERKREDAITQQNTIQNEAVNLLDPGSSYLLQEPPRTVSGRYKSTTSVSEEDVSSRYSRTDRSGFPRYNRDANVSGTLVSSSTLEKKIEDLEKEVVRERQENLRLVRLMQDKEEMIGKLKEEIDLLNRDLDDIEDENEQLKQENKTLLKVVGQLTR [N70A] |

Variants of: B1
Details: with spsb4_mouse Spsb4, Q8R5B6
Sequence of spsb4_mouse Spsb4, Q8R5B6 (Q8R5B6 whole entry): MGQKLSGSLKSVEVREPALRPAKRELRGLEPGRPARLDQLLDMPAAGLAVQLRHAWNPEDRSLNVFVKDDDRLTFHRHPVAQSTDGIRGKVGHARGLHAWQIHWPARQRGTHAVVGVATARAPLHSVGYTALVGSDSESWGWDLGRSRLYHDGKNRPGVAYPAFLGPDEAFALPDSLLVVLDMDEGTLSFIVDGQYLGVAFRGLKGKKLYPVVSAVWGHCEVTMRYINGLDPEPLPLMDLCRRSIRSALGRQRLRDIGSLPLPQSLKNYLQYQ

| effect of a mutation on the interaction | Variant |
| --- | --- |
| increasing interaction | MATGGYRTSSGLGGSTTDFLEEWKAKREKMRAKQNPPGPAPPGGGSSDAAGKPPAGALGTPAAAAANDINNNLPGGAPAAPAVPGPGGVNCAVGSAMLTRAAPGPRRSEDEPPAASASAAPPPQRDEEEPDGVPEKGKSSGPSARKGKGQIEKRKLREKRRSTGVVNIPAAECLDEYEDDEAGQKERKREDAITQQNTIQNEAVNLLDPGSSYLLQEPPRTVSGRYKSTTSVSEEDVSSRYSRTDRSGFPRYNRDANVSGTLVSSSTLEKKIEDLEKEVVRERQENLRLVRLMQDKEEMIGKLKEEIDLLNRDLDDIEDENEQLKQENKTLLKVVGQLTR [E68D;L69I] |
| increasing interaction | MATGGYRTSSGLGGSTTDFLEEWKAKREKMRAKQNPPGPAPPGGGSSDAAGKPPAGALGTPAAAAANEINNNLPGGAPAAPAVPGPGGVNCAVGSAMLTRAAPGPRRSEDEPPAASASAAPPPQRDEEEPDGVPEKGKSSGPSARKGKGQIEKRKLREKRRSTGVVNIPAAECLDEYEDDEAGQKERKREDAITQQNTIQNEAVNLLDPGSSYLLQEPPRTVSGRYKSTTSVSEEDVSSRYSRTDRSGFPRYNRDANVSGTLVSSSTLEKKIEDLEKEVVRERQENLRLVRLMQDKEEMIGKLKEEIDLLNRDLDDIEDENEQLKQENKTLLKVVGQLTR [L69I] |
| disrupting interaction | MATGGYRTSSGLGGSTTDFLEEWKAKREKMRAKQNPPGPAPPGGGSSDAAGKPPAGALGTPAAAAANELNANLPGGAPAAPAVPGPGGVNCAVGSAMLTRAAPGPRRSEDEPPAASASAAPPPQRDEEEPDGVPEKGKSSGPSARKGKGQIEKRKLREKRRSTGVVNIPAAECLDEYEDDEAGQKERKREDAITQQNTIQNEAVNLLDPGSSYLLQEPPRTVSGRYKSTTSVSEEDVSSRYSRTDRSGFPRYNRDANVSGTLVSSSTLEKKIEDLEKEVVRERQENLRLVRLMQDKEEMIGKLKEEIDLLNRDLDDIEDENEQLKQENKTLLKVVGQLTR [N71A] |
| disrupting interaction | MATGGYRTSSGLGGSTTDFLEEWKAKREKMRAKQNPPGPAPPGGGSSDAAGKPPAGALGTPAAAAANELANNLPGGAPAAPAVPGPGGVNCAVGSAMLTRAAPGPRRSEDEPPAASASAAPPPQRDEEEPDGVPEKGKSSGPSARKGKGQIEKRKLREKRRSTGVVNIPAAECLDEYEDDEAGQKERKREDAITQQNTIQNEAVNLLDPGSSYLLQEPPRTVSGRYKSTTSVSEEDVSSRYSRTDRSGFPRYNRDANVSGTLVSSSTLEKKIEDLEKEVVRERQENLRLVRLMQDKEEMIGKLKEEIDLLNRDLDDIEDENEQLKQENKTLLKVVGQLTR [N70A] |

Variants of: B1
Details: with spsb2_mouse Spsb2, O88838
Remark: another data set of the same source

| effect of a mutation on the interaction | Variant |
| --- | --- |
| disrupting interaction | MATGGYRTSSGLGGSTTDFLEEWKAKREKMRAKQNPPGPAPPGGGSSDAAGKPPAGALGTPAAAAANELNNALPGGAPAAPAVPGPGGVNCAVGSAMLTRAAPGPRRSEDEPPAASASAAPPPQRDEEEPDGVPEKGKSSGPSARKGKGQIEKRKLREKRRSTGVVNIPAAECLDEYEDDEAGQKERKREDAITQQNTIQNEAVNLLDPGSSYLLQEPPRTVSGRYKSTTSVSEEDVSSRYSRTDRSGFPRYNRDANVSGTLVSSSTLEKKIEDLEKEVVRERQENLRLVRLMQDKEEMIGKLKEEIDLLNRDLDDIEDENEQLKQENKTLLKVVGQLTR [N72A] |

Variants of: B1
Details: with spsb4_mouse Spsb4, Q8R5B6
Remark: another data set of the same source

| effect of a mutation on the interaction | Variant |
| --- | --- |
| disrupting interaction | MATGGYRTSSGLGGSTTDFLEEWKAKREKMRAKQNPPGPAPPGGGSSDAAGKPPAGALGTPAAAAANELNNALPGGAPAAPAVPGPGGVNCAVGSAMLTRAAPGPRRSEDEPPAASASAAPPPQRDEEEPDGVPEKGKSSGPSARKGKGQIEKRKLREKRRSTGVVNIPAAECLDEYEDDEAGQKERKREDAITQQNTIQNEAVNLLDPGSSYLLQEPPRTVSGRYKSTTSVSEEDVSSRYSRTDRSGFPRYNRDANVSGTLVSSSTLEKKIEDLEKEVVRERQENLRLVRLMQDKEEMIGKLKEEIDLLNRDLDDIEDENEQLKQENKTLLKVVGQLTR [N72A] |
